Patent US20110311517A1, “Antibodies and methods for treating estrogen receptor-associated diseases” (SHENOGEN PHARMA GROUP, LTD., priority 2009, published 2011)
Marks after values point to notes of the source that are not given here.

Key:
[1] = system: Human breast tumor BCAP-37; assay: Tumor growth inhibition in BCAP-37 tumor-bearing nude mice; type: in vivo, BALB/c-nu nude mice
Excerpt: 49 female BALB/c-nu nude mice (provided by department of laboratory animal science, Peking University Health Science Center) were used in the studies.
(§1) The tested animals were grouped into 7 groups with 7 nude mice in each group. The seven groups are the negative control group treated with human IgG antibody (purchased from Beijing Biosynthesis Biotechnology Co. Ltd.), the positive control group treated with herceptin (provided by Beijing Shenogen pharma group), the multi-clonal antibody test group treated with rabbit anti-ERα36 multi-clonal antibody (provided by Wang, Zhao-Yi group, Creighton University), and the monoclonal antibody test groups treated with human anti-ERα36 monoclonal ScFv1, ScFv3, ScFv4 and ScFv7 respectively.
(§2) The test groups were administered with the same dose of rabbit anti-ERα36 multi-clonal antibody, human anti-ERα36 monoclonal ScFv1, ScFv3, ScFv4 and ScFv7 respectively (5 mg/kg, 100 μg/dose). The positive control group was administered with 5 mg/kg herceptin (100 μg/dose,), and the negative control group was administered with 5 mg/kg IgG antibody (100 μg/dose).
(§3) Human breast tumor BCAP-37 (estrogen receptor positive, provided by department of pharmacology, Institute of Materia Medica, Chinese Academy of Medical Sciences) was implanted subcutaneously into the armpit of the right forelimb of each tested nude mouse. Diethylstilbestrol was administered by gavage with the dose of 7 μg/day for 9 consecutive days after the implantation. On day 10, the mice were grouped into 7 groups and administered with the corresponding drug via intravenous injection, at a dosing interval of 3-4 days, for 6 consecutive doses. Every 3-4 days, the tumor-bearing mice were weighed and their tumor sizes were measured. Parameters were calculated using the following equations:
Volume of Tumor in animals of each group (VT): Vt=½×a×b^2, (Equation 1),
wherein a and b represent the length and width of the tumor, respectively;
wherein V0 is the volume of tumor before drug administration at the time of grouping, Vt is the volume of tumor at each measurement; the calculation method of V0 is the same as that of Vt;
wherein TRTV is the arithmetic mean of RTV of the test groups, and CRTV is the arithmetic mean of RTV of the negative control group.
The tumor bearing mice in each group were terminated after 21 days of observations and drug administrations. The tumors were then excised from the animals, photographed and weighed on 1/10000 analytical balance. The average tumor weights and tumor growth inhibition rates were calculated:
All experimental data were shown in mean±standard deviation. Groups were compared using statistical t test.

[2] = Body weight and mortality of tumor-bearing nude mice during drug administration; type: in vivo, BALB/c-nu nude mice; conditions: mean ± SD
Excerpt: as §1, §2
as §3, with “equations: […]” for “equations:”

implanted tumors = assay: Comparison of anti-tumor activity of ScFv-7 with tamoxifen on tumor-bearing nude mice; type: in vivo, BALB/c-nu female nude mice; conditions: after 18 days of drug administration
Procedure: BALB/c-nu female nude mice were divided into 3 groups, with 7 mice in each group.
Human anti-ERα36 ScFv-7 was administered at the dose of 0.1 mg/20 g body weight/day. The positive control tamoxifen was administered at the dose of 0.33 mg/20 g body weight/day. The negative control group was administered with human IgG.
The tumor-bearing nude mice were weighed, and the volumes of the implanted tumors were measured every 3-4 days. The relative tumor volumes and tumor growth inhibition rates were calculated using Equation 2 and Equation 4 respectively. Animals received drug administration for 18 days and were terminated 24 h later. The tumors were excised from the animals and weighed. The average tumor weights and tumor growth inhibitions were calculated using Equation 4.

ERα36 = molecular target: T1, ERα36 (Homo sapiens, UniProt P03372); assay: ELISA of re-natured ScFv binding to ERα36
T1 construct: made in house; host or cells: chemical synthesis (no expression host)
T1 sequence (P03372 284-310 isoform P03372-4 limits assumed): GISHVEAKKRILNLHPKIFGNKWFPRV
Procedure: Streptavidin-coated 96-well plates were washed twice with PBS. Biotinylated ERα36 (final concentration of 20 μg/ml) was added into each testing well. The plates were incubated for 2 h at room temperature and washed three times with PBST. Re-natured ScFv samples (100 μl, S14A1r1, S24A2r2, S33A2r1, S41A3r3, S53A1r1, S66A1r1 and S72A2r1) were added into the testing wells respectively. Each ScFv was diluted five times in five gradients, and two parallel wells were loaded with each ScFv at each gradient. The plates were incubated at 37° C. for 1 h. The plates were washed three times with PBST, followed by addition of 100 μl anti-His-6 mouse monoclonal antibody (1:2000 dilution) per well and 1 h incubation at 37° C. The plates were washed three times with PBST, followed by addition of 100 μl goat anti-mouse-HRP (1:2500 dilution) per well and 1 h incubation at 37° C. The plates were washed six times with PBST, followed by addition of 100 μl OPD to develop under the protection from light. The reactions were terminated by adding 50 μl 2M H2SO4 to each well, and data were collected by microplate reader at 490 nm.
One positive control and three negative controls were performed in parallel. The positive control used rabbit anti-ER multi-clonal antibody serum in replacement of the ScFv re-natured sample and goat-anti-rabbit-HRP in replacement of goat-anti-mouse HRP.

[3] = BCAP-37 nude mice, 5 mg/kg i.v. every 3-4 days, 6 doses, mean ± SD
[4] = BCAP-37 nude mice, 5 mg/kg i.v. every 3-4 days, Vt relative to V0, mean ± SD
[5] = 5 mg/kg i.v. every 3-4 days, 6 doses
[6] = ScFv concentration 200.00 μg/ml

B1: ScFv7: fully human anti-ERα36 single chain antibody, SEQ ID NO: 15 (protein)
scFv: QSVLTQPPSVSAAPGQKVTISCSGSSSNIGNNYVSWYQQLPGTAPKLLIYDNNKRPSGIPDRFSGSKSGTSATLGITGLQTGDEADYYCGTWDSSLSAGVFGGGTKLTVLGSGGSTITSYNVYYTKLSSSGTEVQLVQSGGGLVQPGRSLRLSCAASGFTFDDYAMHWVRQAPGKGLEWVSGISWNSGSIGYADSVKGRFTISRDNAKNSLYLQMNSLRAEDTALYYCAKEGDSSGWSPDYWGQGTLVTVSSAS
modifications: scFv7
Tumor volumes, Day 4 after drug administration [1, 3]: 186.11 ± 71.13^a mm^3 | Tumor volumes, Day 7 after drug administration [1, 3]: 308.85 ± 117.52^b mm^3 | Tumor volumes, Day 11 after drug administration [1, 3]: 1521.45 ± 366.24^b mm^3 | Tumor volumes, Day 14 after drug administration [1, 3]: 2136.49 ± 479.95^b mm^3 | Tumor volumes, Day 18 after drug administration [1, 3]: 2944.61 ± 526.75^b mm^3 | Tumor volumes, Day 21 after drug administration [1, 3]: 3358.43 ± 445.13^b mm^3 | relative tumor volume (RTV), Day 4 [1, 4]: 3.81 ± 1.54^b | relative tumor volume (RTV), Day 7 [1, 4]: 6.45 ± 2.86^b | relative tumor volume (RTV), Day 11 [1, 4]: 31.64 ± 10.24^b | relative tumor volume (RTV), Day 14 [1, 4]: 44.48 ± 13.69^b | relative tumor volume (RTV), Day 18 [1, 4]: 61.54 ± 18.25^b | relative tumor volume (RTV), Day 21 [1, 4]: 70.27 ± 19.61^b | inhibition of tumor growth in tumor-bearing mice (in words) ([1]; BCAP-37 nude mice, 5 mg/kg i.v., 6 doses): strongest inhibitory activities | Tumor volumes, Before drug administration ([1]; baseline, BCAP-37 nude mice, 5 mg/kg i.v. every 3-4 days, 6 doses, mean ± SD): 50.62 ± 13.32 mm^3 | tumor sizes at pathological examination (in words) ([1]; excised tumors after 21 days): the smallest among the mono-clonal antibody groups | Tumor weight ([1]; excised tumors after 21 days, BCAP-37 nude mice, 5 mg/kg i.v., 6 doses, mean ± SD): 2.860 ± 0.696 g | Tumor growth inhibition rate (%) ([1]; from average tumor weights after 21 days vs negative control, 5 mg/kg i.v., 6 doses): 57.97% | Body weights of tumor-bearing nude mice, Day 4 after drug administration [2, 5]: 20.02 ± 0.51 | Body weights of tumor-bearing nude mice, Day 7 after drug administration [2, 5]: 20.65 ± 0.24 | Body weights of tumor-bearing nude mice, Day 11 after drug administration [2, 5]: 21.34 ± 0.51 | Body weights of tumor-bearing nude mice, Day 14 after drug administration [2, 5]: 22.01 ± 0.52 | Body weights of tumor-bearing nude mice, Day 18 after drug administration [2, 5]: 23.15 ± 0.58 | Body weights of tumor-bearing nude mice, Day 21 after drug administration [2, 5]: 23.52 ± 0.47 | body weight when grouped ([2]; baseline at the time of grouping): 19.67 ± 0.67 | Body weights of tumor-bearing nude mice, Before drug administration ([2]; baseline, 5 mg/kg i.v. every 3-4 days, 6 doses): 19.67 ± 0.67 | tumor sizes at pathological examination (in words) (implanted tumors): significantly smaller than those of the negative group | tumor volume (VT), relative tumor volume (RVT) and relative tumor growth rate (T/C %) versus negative control group (implanted tumors): significantly lower | tumor inhibition rates (implanted tumors; ScFv-7 0.1 mg/20 g body weight/day, tamoxifen 0.33 mg/20 g body weight/day): around 60% | average tumor weights compared with negative group (implanted tumors; p-values below 0.01): significant difference | OD490 Well1 (ERα36; ScFv concentration 0.32 μg/ml): 0.122 | OD490 Well2 (ERα36; ScFv concentration 0.32 μg/ml): 0.111 | OD490 Well1 (ERα36; ScFv concentration 1.60 μg/ml): 0.146 | OD490 Well2 (ERα36; ScFv concentration 1.60 μg/ml): 0.155 | OD490 Well1 (ERα36; ScFv concentration 8.00 μg/ml): 0.171 | OD490 Well2 (ERα36; ScFv concentration 8.00 μg/ml): 0.155 | OD490 Well1 (ERα36; ScFv concentration 40.00 μg/ml): 0.294 | OD490 Well2 (ERα36; ScFv concentration 40.00 μg/ml): 0.311 | OD490 Well1 (ERα36; [6]): 0.690 | OD490 Well2 (ERα36; [6]): 0.740
